Data as given in patent publication US20170349669A1 (Hoffmann-La Roche, published 2017).

T1: human VEGFA-121-His (human, UniProt P15692-9 27-147)
T1 construct: Captured on an anti-His antibody surface; P15692 is the canonical VEGF-A entry, and the 121 isoform is one of its splice forms; also called VEFGA-121-His; not shown: His tag
T1 sequence (looked up): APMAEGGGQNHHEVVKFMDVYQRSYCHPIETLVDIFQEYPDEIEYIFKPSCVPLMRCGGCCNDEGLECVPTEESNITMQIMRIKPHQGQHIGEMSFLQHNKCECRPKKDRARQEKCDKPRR

T2: human Ang-2-RBD-Fc (human, UniProt O15123 275-496, limits assumed)
T2 construct: domain: RBD; Used as analyte in solution; The KD is called apparent; not shown: Fc part
T2 sequence (looked up): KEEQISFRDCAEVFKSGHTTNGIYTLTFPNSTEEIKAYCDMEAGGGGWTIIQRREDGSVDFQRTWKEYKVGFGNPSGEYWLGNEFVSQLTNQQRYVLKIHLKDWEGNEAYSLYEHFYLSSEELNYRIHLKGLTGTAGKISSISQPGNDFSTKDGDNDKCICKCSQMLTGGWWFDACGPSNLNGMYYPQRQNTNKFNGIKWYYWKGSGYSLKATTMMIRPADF

T3: TWEAK (human, UniProt O43508 94-249, limits assumed)
T3 construct: The assay paragraph says only 'TWEAK'; also called human TWEAK; TNF-related weak inducer of apoptosis
T3 sequence (looked up): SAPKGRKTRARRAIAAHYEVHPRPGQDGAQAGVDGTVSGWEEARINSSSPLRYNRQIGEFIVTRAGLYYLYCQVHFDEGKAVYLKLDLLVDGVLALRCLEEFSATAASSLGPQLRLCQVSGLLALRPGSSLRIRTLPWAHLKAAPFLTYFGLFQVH

T4: human IL17 (human, UniProt Q16552 24-155)
T4 construct: Used as analyte in solution; also called IL17-A
T4 sequence (looked up): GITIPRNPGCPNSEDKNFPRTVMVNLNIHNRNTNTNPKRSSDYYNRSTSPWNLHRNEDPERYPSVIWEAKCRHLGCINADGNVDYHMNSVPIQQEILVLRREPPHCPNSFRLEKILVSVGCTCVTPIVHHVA


What was measured:
human VEGFA-121-His = target: T1, human VEGFA-121-His; assay: SPR Biacore T200, VEGFA-121-His captured via anti-His, antibody as analyte, 1:1 Langmuir
Description: Binding of indicated antibodies to human VEGFA-121 was investigated by surface plasmon resonance using a BIACORE® T200 instrument (GE Healthcare). Around 10000 (RU) of anti His antibody (1 μg/ml anti His antibody; Order Code: 28995056; GE Healthcare Bio-Sciences AB, Sweden) were coupled on a Series S CM5 chip (GE Healthcare BR-1005-30) at pH 5.0 by using an amine coupling kit supplied by the GE Healthcare. HBS-N (10 mM HEPES, 150 mM NaCl pH 7.4, GE Healthcare) was used as running buffer during the immobilization procedure. For the following kinetic characterization, sample and running buffer was PBS-T (10 mM phosphate buffered saline including 0.05% Tween20) at pH 7.4. The flow cell was set to 25° C.—and the sample block set to 12° C.—and primed with running buffer twice prior to kinetic characterization.
VEFGA-121-His was captured by injecting a 0.5 μg/ml solution for 30 sec at a flow of 5 μl/min. The association was measured by injection of the indicated antibodies in various concentrations in solution for 180 sec at a flow of 30 μl/min starting with 1000 nM in 1:3 serial dilutions. The dissociation phase was monitored for up to 600 sec and triggered by switching from the sample solution to running buffer. The surface was regenerated by 60 sec washing with a Glycine pH 1.5 solution at a flow rate of 30 μl/min. Bulk refractive index differences were corrected by subtracting the response obtained from a anti His antibody surface. Blank injections are also subtracted (=double referencing). For calculation of KD and other kinetic parameters the Langmuir 1:1 model was used.

human Ang-2-RBD-Fc = target: T2, human Ang-2-RBD-Fc; assay: SPR Biacore T200, apparent KD, antibody captured via anti-human F(ab')2, Ang2-RBD-Fc as analyte
Description: Binding of indicated antibodies to human Ang-2-RBD-Fc was investigated by surface plasmon resonance using a BIACORE® T200 instrument (GE Healthcare). Around 8000 (RU) of goat anti human F(ab′)₂ (10 μg/ml anti human F(ab)′₂; Order Code: 28958325; GE Healthcare Bio-Sciences AB, Sweden) were coupled on a Series S CM5 chip (GE Healthcare BR-1005-30) at pH 5.0 by using an amine coupling kit supplied by the GE Healthcare. HBS-N (10 mM HEPES, 150 mM NaCl pH 7.4, GE Healthcare) was used as running buffer during the immobilization procedure. For the following kinetic characterization, sample and running buffer was PBS-T (10 mM phosphate buffered saline including 0.05% Tween20) at pH 7.4. The flow cell was set to 25° C.—and the sample block set to 12° C.—and primed with running buffer twice prior to kinetic characterization.
The bispecific antibody was captured by injecting a 5 nM solution for 25 sec at a flow of 5 μl/min. The association was measured by injection of human Ang2-RBD-Fc in various concentrations in solution for 120 sec at a flow of 30 μl/min starting with 100 nM in 1:3 serial dilutions. The dissociation phase was monitored for up to 180 sec and triggered by switching from the sample solution to running buffer. The surface was regenerated by 60 sec washing with a Glycine pH 2.1 solution at a flow rate of 30 μl/min. Bulk refractive index differences were corrected by subtracting the response obtained from a goat anti human F(ab′)₂ surface. Blank injections are also subtracted (=double referencing). For calculation of apparent KD the Langmuir 1:1 model was used.

TWEAK = target: T3, TWEAK; assay: SPR Biacore T200 25 C, apparent KD, TWEAK amine-coupled on C1 chip, antibody as analyte
human IL17 = target: T4, human IL17; assay: SPR Biacore T200 25 C, antibody captured via anti-human F(ab')2, human IL17 as analyte, 1:1 Langmuir
Description: Around 6000 resonance units (RU) of the capturing system (15 μg/ml goat anti human F(ab′)2; Order Code: 28958325; GE Healthcare Bio-Sciences AB, Schweden) were coupled on a CM5 chip at pH 5.0 by using an amine coupling kit supplied by the GE Healthcare. The sample and system buffer was PBS-T (10 mM phosphate buffered saline including 0.05% Tween 20) pH 7.4. The bispecific antibody was captured by injecting a 50 nM solution for 90 sec at a flow of 10 μl/min. Association was measured by injection human IL17 in various concentrations in solution for 3 min at a flow of 30 μl/min starting with 50 nM in 1:1 serial dilutions. The dissociation phase was monitored for up to 10 min and triggered by switching from the sample solution to running buffer. The surface was regenerated twice by 60 sec wash with a 10 mM glycine pH 2.1 solution at a flow rate of 30 μl/min. Bulk refractive index differences were corrected by subtracting the response obtained from a goat anti human F(ab′)2 surface. Blank injections are also subtracted (=double referencing). For calculation of apparent KD and other kinetic parameters, the Langmuir 1:1 model was used.

Binder	Kd (human VEGFA-121-His)	Kd (human Ang-2-RBD-Fc)	Kd (TWEAK)	Kd (human IL17)
Ang2VEGF_469 (bispecific antibody, human IgG1, kappa, The charged substitutions are in the crossed (VEGF) arm) heavy 1: not shown light 1: EVQLVESGGGLVQPGGSLRLSCAASGYTFTNYGMNWVRQAPGKGLEWVGWINTYTGEPTYAADFKRRFTFSLDTSKSTAYLQMNSLRAEDTAVYYCAKYPHYYGSSHWYFDVWGQGTLVTVSSASTKGPSVFPLAPSSKSTSGGTAALGCLVEDYFPEPVTVSWNSGALTSGVHTFPAVLQSSGLYSLSSVVTVPSSSLGTQTYICNVNHKPSNTKVDEKVEPKSC heavy 2: not shown light 2: QPGLTQPPSVSVAPGQTARITCGGNNIGSKSVHWYQQKPGQAPVLVVYDDSDRPSGIPERFSGSNSGNTATLTISRVEAGDEADYYCQVWDSSSDHYVFGTGTKVTVLRTVAAPSVFIFPPSDEQLKSGTASVVCLLNNFYPREAKVQWKVDNALQSGNSQESVTEQDSKDSTYSLSSTLTLSKADYEKHKVYACEVTHQGLSSPVTKSFNRGEC	13 nM	3 nM		
Ang2VEGF_470 (bispecific antibody, human IgG1, kappa, The charged substitutions are in the crossed (VEGF) arm, with Q124E added in the Ang2 light chain) heavy 1: not shown light 1: EVQLVESGGGLVQPGGSLRLSCAASGYTFTNYGMNWVRQAPGKGLEWVGWINTYTGEPTYAADFKRRFTFSLDTSKSTAYLQMNSLRAEDTAVYYCAKYPHYYGSSHWYFDVWGQGTLVTVSSASTKGPSVFPLAPSSKSTSGGTAALGCLVEDYFPEPVTVSWNSGALTSGVHTFPAVLQSSGLYSLSSVVTVPSSSLGTQTYICNVNHKPSNTKVDEKVEPKSC heavy 2: not shown light 2: QPGLTQPPSVSVAPGQTARITCGGNNIGSKSVHWYQQKPGQAPVLVVYDDSDRPSGIPERFSGSNSGNTATLTISRVEAGDEADYYCQVWDSSSDHYVFGTGTKVTVLRTVAAPSVFIFPPSDEELKSGTASVVCLLNNFYPREAKVQWKVDNALQSGNSQESVTEQDSKDSTYSLSSTLTLSKADYEKHKVYACEVTHQGLSSPVTKSFNRGEC	12 nM	3 nM		
TweakIL17_102 (bispecific antibody, human IgG4 S228P, kappa, also called TweakIL17_0102) heavy 1: DIQMTQSPSSVSASVGDRVTITCQASQNIYSNLAWYQQKPGKAPKLLIYTASYLASGVPSRFSGSGSGTDYTLTISSLQPEDFATYYCQTAYYNSRPDTVAFGGGTKVEIKRTVAAPSVFIFPPSDEQLKSGTASVVCLLNNFYPREAKVQWKVDNALQSGNSQESVTEQDSKDSTYSLSSTLTLSKADYEKHKVYACEVTHQGLSSPVTKSFNRGECPPCPPCPAPEFEGGPSVFLFPPKPKDTLMISRTPEVTCVVVDVSQEDPEVQFNWYVDGVEVHNAKTKPREEQFNSTYRVVSVLTVLHQDWLNGKEYKCKVSNKGLPSSIEKTISKAKGQPREPQVYTLPPCQEEMTKNQVSLWCLVKGFYPSDIAVEWESNGQPENNYKTTPPVLDSDGSFFLYSRLTVDKSRWQEGNVFSCSVMHEALHNHYTQKSLSLSL light 1: QVQLVQSGAEVKKPGSSVKVSCKASGFDFSTYYMSWVRQAPGQGLEWMGTVYVRQGTTYYASWLNGRVTITADESTSTAYMELSSLRSEDTAVYYCARGGYNYDDAFVIWGQGTLVTVSSASTKGPSVFPLAPCSRSTSESTAALGCLVKDYFPEPVTVSWNSGALTSGVHTFPAVLQSSGLYSLSSVVTVPSSSLGTKTYTCNVDHKPSNTKVDKRVESKYG heavy 2: EVQLVESGGGLVQPGGSLRLSCAASGFSLDSYGVHWVRQATGKGLEWVSVIWSDGTTTYNSALKSRFTISRENAKNSLYLQMNSLRAGDTAVYYCARDTHYRLYYYAMDYWGQGTTVTVSSASTKGPSVFPLAPCSRSTSESTAALGCLVEDYFPEPVTVSWNSGALTSGVHTFPAVLQSSGLYSLSSVVTVPSSSLGTKTYTCNVDHKPSNTKVDERVESKYGPPCPPCPAPEFEGGPSVFLFPPKPKDTLMISRTPEVTCVVVDVSQEDPEVQFNWYVDGVEVHNAKTKPREEQFNSTYRVVSVLTVLHQDWLNGKEYKCKVSNKGLPSSIEKTISKAKGQPREPQVCTLPPSQEEMTKNQVSLSCAVKGFYPSDIAVEWESNGQPENNYKTTPPVLDSDGSFFLVSRLTVDKSRWQEGNVFSCSVMHEALHNHYTQKSLSLSL light 2: DIVMTQSPLSLPVTPGEPASISCRSSQSLVHSNGDTYFHWYLQKPGQSPQLLIYKVSNRFSGVPDRFSGSGSGTDFTLKISRVEAEDVGVYYCSQTTHAPFTFGQGTKLEIKRTVAAPSVFIFPPSDKKLKSGTASVVCLLNNFYPREAKVQWKVDNALQSGNSQESVTEQDSKDSTYSLSSTLTLSKADYEKHKVYACEVTHQGLSSPVTKSFNRGEC			< 0.1 nM	0.1 nM
